Among the data in PMC4227133 are other values, retold here.

This assay addresses Gal4 Cyclin T1s with a mutated Y175.

B1: Hexim1, endogenous in HEK293 cells, O94992 1-359 (natural protein)
chain: MAEPFLSEYQHQPQTSNCTGAAAVQEELNPERPPGAEERVPEEDSRWQSRAFPQLGGRPGPEGEGSLESQPPPLQTQACPESSCLREGEKGQNGDDSSAGGDFPPPAEVEPTPEAELLAQPCHDSEASKLGAPAAGGEEEWGQQQRQLGKKKHRRRPSKKKRHWKPYYKLTWEEKKKFDEKQSLRASRIRAEMFAKGQPVAPYNTTQFLMDDHDQEEPDLKTGLYSKRAAAKSDDTSDDDFMEEGGEEDGGSDGMGGDGSEFLQRDFSETYERYHTESLQNMSKQELIKEYLELEKCLSRMEDENNRLRLESKRLGGDDARVRELELELDRLRAENLQLLTENELHRQQERAPLSKFGD
For the molecule B1, the other was 2 fold.
